Experimental data: article PMC11937253 (2025)
Like-named read-outs stand apart in the source and are kept apart here.

What was measured:
Assay in all cases: SPR
[1] = biological target: T1, recombinant MPXV [change] protein (ectodomain, His-tagged) (mpox virus (MPXV), isolate …)
[2] = biological target: T1, recombinant MPXV [change] protein …; remark: listed apart in the source
7D11 = biological target: 7D11

| Binder | Kd [1] [nM] | Kd [2] [nM] | Kd (7D11) [nM] |
| --- | --- | --- | --- |
| nanobody M1R-01 (monovalent) (VHH) VHH: QVQLVESGGGLVQAGGSLRLSCAASGFIFHNFDMGWYRQAPGKEREFVAAISDNGRSTYYADSVKGRFTISRDNAKNTVYLQMNSLKPEDTAVYYCAVAWLSIPDLAEWYDYWGQGTQVTVSS | 40.4 | 40 | – |
| recombinant MPXV [change] protein (ectodomain, His-tagged) (domain or fragment) MGAAASIQTTVNTLSERISSKLEQEANASAQTKCDIEIGNFYIRQNHGCNITVKNMCSADADAQLDAVLSAATETYSGLTPEQKAYVPAMFTAALNIQTSVNTVVRDFENYVKQTCNSSAVVDNKLKIQNVIIDECYGAPGSPTNLEFINTGSSKGNCAIKALMQLTTKATTQIAPRQVAG | – | – | 0.0198 |
